Data as given in patent publication US20230235005A1 (INHIBRX, published 2023).
Read-outs that look alike come from different tables or passages of the source.

Experiments:
[1] = molecular target: trimeric IL-2 receptor on HEK-Blue IL-2 reporter cells (UniProt P01589); test: cell-based or functional assay
[2] = molecular target: IL-2 receptor together with PD-1 on HEK-Blue IL-2 reporter cells expressing PD-1 (UniProt P01589); test: cell-based or functional assay
[3] = molecular target: T1, PD-1 expressed on modified HEK-Blue IL-2 reporter cell clones (UniProt Q15116 25-288, limits assumed); test: cell-based or functional assay
T1 sequence (Q15116 25-288 limits assumed): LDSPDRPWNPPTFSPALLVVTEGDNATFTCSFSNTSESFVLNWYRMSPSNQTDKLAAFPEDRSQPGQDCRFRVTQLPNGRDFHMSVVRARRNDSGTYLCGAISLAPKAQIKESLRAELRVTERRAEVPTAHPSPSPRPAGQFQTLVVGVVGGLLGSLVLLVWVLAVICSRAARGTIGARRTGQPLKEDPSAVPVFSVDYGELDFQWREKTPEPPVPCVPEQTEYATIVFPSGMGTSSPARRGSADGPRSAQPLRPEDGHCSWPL

Histidine-tagged CD25 = molecular target: T2, Histidine-tagged CD25 (UniProt P01589 22-217, limits assumed); test: Biolayer Interferometry (ForteBio), immobilized His-tagged CD25
T2 construct: Immobilized in Biolayer Interferometry (ForteBio); not shown: histidine tag
T2 sequence (looked up): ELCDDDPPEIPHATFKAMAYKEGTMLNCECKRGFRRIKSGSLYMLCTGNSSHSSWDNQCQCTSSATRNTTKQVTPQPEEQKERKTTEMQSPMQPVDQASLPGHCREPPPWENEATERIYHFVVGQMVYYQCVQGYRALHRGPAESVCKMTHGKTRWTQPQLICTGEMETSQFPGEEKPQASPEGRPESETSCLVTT
Protocol: Polypeptides comprising a modified IL-2 fused to the C-terminus of a PD-1 binding VHH and control polypeptides were tested for binding to CD25 using Biolayer Interferometry (ForteBio).

[4] = molecular target: T3, IL-2 receptor overexpressed on HEK-Blue IL-2 reporter cells (InvivoGen) (UniProt P01589 22-272; P14784 27-551; P31785 23-369, limits assumed); test: cell-based or functional assay
T3 sequence (looked up) 1: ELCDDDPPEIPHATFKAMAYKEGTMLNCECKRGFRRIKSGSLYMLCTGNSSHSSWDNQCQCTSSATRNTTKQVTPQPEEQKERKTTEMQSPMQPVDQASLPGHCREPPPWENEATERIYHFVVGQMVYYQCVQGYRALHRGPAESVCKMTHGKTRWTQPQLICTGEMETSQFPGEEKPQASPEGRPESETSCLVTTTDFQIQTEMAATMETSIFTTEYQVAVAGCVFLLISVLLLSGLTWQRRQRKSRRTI
T3 sequence (looked up) 2: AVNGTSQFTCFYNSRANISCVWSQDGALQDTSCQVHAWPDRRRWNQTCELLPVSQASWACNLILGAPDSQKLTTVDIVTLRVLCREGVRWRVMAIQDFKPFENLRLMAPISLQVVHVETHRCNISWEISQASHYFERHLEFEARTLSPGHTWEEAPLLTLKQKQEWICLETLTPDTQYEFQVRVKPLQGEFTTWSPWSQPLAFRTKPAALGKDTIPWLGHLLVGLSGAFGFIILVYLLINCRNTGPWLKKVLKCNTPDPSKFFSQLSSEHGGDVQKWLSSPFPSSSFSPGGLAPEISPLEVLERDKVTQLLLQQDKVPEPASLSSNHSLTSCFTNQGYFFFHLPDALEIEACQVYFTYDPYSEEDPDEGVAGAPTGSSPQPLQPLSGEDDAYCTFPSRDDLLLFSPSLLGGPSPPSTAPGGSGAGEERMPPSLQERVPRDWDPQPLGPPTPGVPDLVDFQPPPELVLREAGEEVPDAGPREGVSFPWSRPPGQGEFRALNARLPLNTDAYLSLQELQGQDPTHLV
T3 sequence (looked up) 3: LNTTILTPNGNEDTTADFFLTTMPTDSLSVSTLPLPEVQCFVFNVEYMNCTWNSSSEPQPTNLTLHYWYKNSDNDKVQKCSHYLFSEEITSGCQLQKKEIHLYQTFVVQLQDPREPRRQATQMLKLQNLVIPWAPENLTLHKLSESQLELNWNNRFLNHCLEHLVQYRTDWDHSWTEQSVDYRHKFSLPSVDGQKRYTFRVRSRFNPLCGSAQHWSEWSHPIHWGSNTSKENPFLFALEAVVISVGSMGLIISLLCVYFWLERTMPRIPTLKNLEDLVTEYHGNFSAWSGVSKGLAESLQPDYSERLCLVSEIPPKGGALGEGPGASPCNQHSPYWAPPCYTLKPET

[5] = molecular target: trimeric IL-2 receptor (CD25, CD122, CD132) on HEK-Blue IL-2 reporter cells (UniProt P01589); test: cell-based or functional assay
[6] = molecular target: T3, IL-2 receptor overexpressed on HEK-Blue …; test: cell-based or functional assay; remark: listed apart in the source
[7] = molecular target: T1, PD-1 expressed on modified HEK-Blue …; test: cell-based or functional assay; remark: listed apart in the source
[8] = molecular target: T3, IL-2 receptor overexpressed on HEK-Blue …; test: cell-based or functional assay; remark: listed apart in the source
[9] = molecular target: T3, IL-2 receptor overexpressed on HEK-Blue …; test: cell-based or functional assay; remark: listed apart in the source
[10] = molecular target: T1, PD-1 expressed on modified HEK-Blue …; test: cell-based or functional assay; remark: listed apart in the source
[11] = molecular target: T1, PD-1 expressed on modified HEK-Blue …; test: cell-based or functional assay; remark: listed apart in the source
[12] = molecular target: T3, IL-2 receptor overexpressed on HEK-Blue …; test: cell-based or functional assay; remark: listed apart in the source
[13] = molecular target: T1, PD-1 expressed on modified HEK-Blue …; test: cell-based or functional assay; remark: listed apart in the source
[14] = molecular target: T3, IL-2 receptor overexpressed on HEK-Blue …; test: cell-based or functional assay; remark: listed apart in the source
[15] = molecular target: T1, PD-1 expressed on modified HEK-Blue …; test: cell-based or functional assay; remark: listed apart in the source
[16] = molecular target: T3, IL-2 receptor overexpressed on HEK-Blue …; test: cell-based or functional assay; remark: listed apart in the source
[17] = molecular target: T1, PD-1 expressed on modified HEK-Blue …; test: cell-based or functional assay; remark: listed apart in the source

Chain of IL-2 receptor together with PD-1 on HEK-Blue IL-2 reporter cells expressing PD-1 (Q15116 25-288 limits assumed): as the sequence (Q15116 25-288 limits assumed) above

Binder	EC50 (nM), IL-2 reporter cells expressing PD-1 [3] [nM]	binding result (Histidine-tagged CD25)	EC50 (nM), HEK-Blue IL-2 reporter cells lacking PD-1 [4] [nM]	also measured
polypeptide comprising modified IL-2 (T3A, H16A, E61R, P65R, D84S, C125S) fused to the C-terminus of a PD-1-binding VHH (other, not shown: a dimerising Fc or GST; small tags and cut ends) APASSSTKKTQLQLEALLLDLQMILNGINNYKNPKLTRMLTFKFYMPKKATELKHLQCLERELKRLEEVLNLAQSKNFHLRPRSLISNINVIVLELKGSETTFMCEYADETATIVEFLNRWITFSQSIISTLT	0.002	no binding (tested: 300 nM)	3.2	Non-targeted EC50 [1]: 3.18 nM; PD-1 Targeted EC50 [2]: 0.002 nM; PD-1 Window [2]: 1570
polypeptide comprising modified IL-2 (T3A, H16A, E61R, P65R, D84Y, C125S) fused to the C-terminus of a CD8a-binding VHH (protein, part only; not given: CD8a-binding VHH and any linker or Fc, part only) chain, part: APASSSTKKTQLQLEALLLDLQMILNGINNYKNPKLTRMLTFKFYMPKKATELKHLQCLERELKRLEEVLNLAQSKNFHLRPRYLISNINVIVLELKGSETTFMCEYADETATIVEFLNRWITFSQSIISTLT				CD8a Targeted EC50, IL-2 reporter cells expressing CD8a (secreted alkaline phosphatase) [5]: 0.011 nM; Non-targeted EC50, HEK-Blue IL-2 reporter cells lacking PD-1, NKp46 and CD8a (secreted alkaline phosphatase) [5]: 4.51 nM
polypeptide comprising modified IL-2 (T3A, H16A, P65R, D84S, I114F, C125S) fused to the C-terminus of a PD-1-binding VHH (other, not shown: a dimerising Fc or GST; small tags and cut ends) APASSSTKKTQLQLEALLLDLQMILNGINNYKNPKLTRMLTFKFYMPKKATELKHLQCLEEELKRLEEVLNLAQSKNFHLRPRSLISNINVIVLELKGSETTFMCEYADETATFVEFLNRWITFSQSIISTLT	0.002	no binding (tested: 300 nM)	1.4	
polypeptide comprising modified IL-2 (T3A, H16A, K43E, P65R, D84S, C125S) fused to the C-terminus of a PD-1-binding VHH (other, not shown: a dimerising Fc or GST; small tags and cut ends) APASSSTKKTQLQLEALLLDLQMILNGINNYKNPKLTRMLTFEFYMPKKATELKHLQCLEEELKRLEEVLNLAQSKNFHLRPRSLISNINVIVLELKGSETTFMCEYADETATIVEFLNRWITFSQSIISTLT	0.001	no binding (tested: 300 nM)	1.1	
polypeptide comprising modified IL-2 (T3A, H16A, F42R, P65R, D84S, C125S) fused to the C-terminus of a PD-1-binding VHH (other, not shown: a dimerising Fc or GST; small tags and cut ends) APASSSTKKTQLQLEALLLDLQMILNGINNYKNPKLTRMLTRKFYMPKKATELKHLQCLEEELKRLEEVLNLAQSKNFHLRPRSLISNINVIVLELKGSETTFMCEYADETATIVEFLNRWITFSQSIISTLT	0.003		2.1	
polypeptide comprising modified IL-2 (T3A, H16A, P65R, D84S, C125S) fused to the C-terminus of a PD-1-binding VHH (other, not shown: a dimerising Fc or GST; small tags and cut ends) APASSSTKKTQLQLEALLLDLQMILNGINNYKNPKLTRMLTFKFYMPKKATELKHLQCLEEELKRLEEVLNLAQSKNFHLRPRSLISNINVIVLELKGSETTFMCEYADETATIVEFLNRWITFSQSIISTLT	0.001		0.9	EC50 (nM), HEK-Blue IL-2 [6]: 0.512 nM; EC50 (nM), HEK-Blue IL-2 + PD-1 [7]: 0.001 nM; EC50 (nM), HEK-Blue IL-2 reporter cells lacking PD-1 [8]: 0.9 nM; EC50 (nM), HEK-Blue IL-2 [9]: 0.512 nM; EC50 (nM), HEK-Blue IL-2 + PD-1 [10]: 0.001 nM; EC50 (nM), IL-2 reporter cells expressing PD-1 [11]: 0.001 nM; EC50 (nM), HEK-Blue IL-2 [12]: 0.512 nM; EC50 (nM), HEK-Blue IL-2 + PD-1 [13]: 0.001 nM; EC50 (nM), HEK-Blue IL-2 [14]: 0.3 nM; EC50 (nM), HEK-Blue IL-2 + PD-1 [15]: 0.003 nM; EC50 (nM), HEK-Blue IL-2 [16]: 0.3 nM; EC50 (nM), HEK-Blue IL-2 + PD-1 [17]: 0.003 nM
polypeptide comprising modified IL-2 (T3A, H16A, R38A, P65R, D84S, C125S) fused to the C-terminus of a PD-1-binding VHH (other, not shown: a dimerising Fc or GST; small tags and cut ends) APASSSTKKTQLQLEALLLDLQMILNGINNYKNPKLTAMLTFKFYMPKKATELKHLQCLEEELKRLEEVLNLAQSKNFHLRPRSLISNINVIVLELKGSETTFMCEYADETATIVEFLNRWITFSQSIISTLT	0.002	no binding (tested: 300 nM)	2	Non-targeted EC50 [1]: 1.97 nM; PD-1 Targeted EC50 [2]: 0.002 nM; PD-1 Window [2]: 978
polypeptide comprising modified IL-2 (T3A, H16A, K43E, Y45R, P65R, D84S, C125S) fused to the C-terminus of a PD-1-binding VHH (other, not shown: a dimerising Fc or GST; small tags and cut ends) APASSSTKKTQLQLEALLLDLQMILNGINNYKNPKLTRMLTFEFRMPKKATELKHLQCLEEELKRLEEVLNLAQSKNFHLRPRSLISNINVIVLELKGSETTFMCEYADETATIVEFLNRWITFSQSIISTLT	0.002	no binding (tested: 300 nM)	1.5	
polypeptide comprising modified IL-2 (T3A, H16A, Δ42, P65R, D84S, C125S) fused to the C-terminus of a PD-1-binding VHH (other, not shown: a dimerising Fc or GST; small tags and cut ends, also called IL-2-T3A-H16A-ΔF42-P65R-D84S-C125S) APASSSTKKTQLQLEALLLDLQMILNGINNYKNPKLTRMLTKFYMPKKATELKHLQCLEEELKRLEEVLNLAQSKNFHLRPRSLISNINVIVLELKGSETTFMCEYADETATIVEFLNRWITFSQSIISTLT	0.005	no binding (tested: 300 nM)	4.2	
